Assay [1] deals with NMHC II-A artificial polypeptide (Seq ID No: 2). Description: indirect ELISA, antigen coated 200 ng/well, serum dilution 10^-2; control of the anti-polypeptide (Seq ID No: 2) group.
Assay [2] has as its target non-muscle myosin heavy chain II-A (NMHC II-A) protein. The assay is described as above.
Assay [3] concerns the target NMHC II-A artificial polypeptide (Seq ID No: 3). Description: indirect ELISA, antigen coated 200 ng/well, serum dilution 10^-2; control of the anti-polypeptide (Seq ID No: 3) group. In general terms: In an ELISA, binding on a coated surface is turned into a signal by an enzyme label.
Assay [4] deals with non-muscle myosin heavy chain II-A (NMHC II-A) protein. The description is as above.
Assay [5] concerns the target NMHC II-A artificial polypeptide (Seq ID No: 4). Nature of the assay: indirect ELISA, antigen coated 200 ng/well, serum dilution 10^-2; control of the anti-polypeptide (Seq ID No: 4) group.
Assay [6] concerns the target non-muscle myosin heavy chain II-A (NMHC II-A) protein. Described as above.
The target in assay [7] is NMHC II-A artificial polypeptide (Seq ID No: 2). Description: indirect ELISA, antigen coated 200 ng/well, serum dilution 10^-3; control of the anti-polypeptide (Seq ID No: 2) group.
In assay [8] the target is non-muscle myosin heavy chain II-A (NMHC II-A) protein. The description is as above.
Assay [9] concerns the target NMHC II-A artificial polypeptide (Seq ID No: 3). Nature of the assay: indirect ELISA, antigen coated 200 ng/well, serum dilution 10^-3; control of the anti-polypeptide (Seq ID No: 3) group.
Assay [10] has as its target non-muscle myosin heavy chain II-A (NMHC II-A) protein. The assay is described as above.
Assay [11] has as its target NMHC II-A artificial polypeptide (Seq ID No: 4). Nature of the assay: indirect ELISA, antigen coated 200 ng/well, serum dilution 10^-3; control of the anti-polypeptide (Seq ID No: 4) group.
In assay [12] the target is non-muscle myosin heavy chain II-A (NMHC II-A) protein. The description is as above.
Assay [13] has as its target NMHC II-A artificial polypeptide (Seq ID No: 2). Nature of the assay: indirect ELISA, antigen coated 200 ng/well, serum dilution 10^-4; control of the anti-polypeptide (Seq ID No: 2) group.
For assay [14], the target named is non-muscle myosin heavy chain II-A (NMHC II-A) protein. The assay is described as above.
The target of assay [15] is NMHC II-A artificial polypeptide (Seq ID No: 3). Description: indirect ELISA, antigen coated 200 ng/well, serum dilution 10^-4; control of the anti-polypeptide (Seq ID No: 3) group.
Assay [16] addresses NMHC II-A artificial polypeptide (Seq ID No: 4). Description: indirect ELISA, antigen coated 200 ng/well, serum dilution 10^-4; control of the anti-polypeptide (Seq ID No: 4) group.
Assay [17] deals with non-muscle myosin heavy chain II-A (NMHC II-A) protein. The description is as above.
Assay [18] has as its target NMHC II-A artificial polypeptide (Seq ID No: 2). Description: indirect ELISA, antigen coated 200 ng/well, serum dilution 10^-5; control of the anti-polypeptide (Seq ID No: 2) group.
Assay [19] has as its target non-muscle myosin heavy chain II-A (NMHC II-A) protein. The description is as above.
Assay [20] has as its target NMHC II-A artificial polypeptide (Seq ID No: 3). Nature of the assay: indirect ELISA, antigen coated 200 ng/well, serum dilution 10^-5; control of the anti-polypeptide (Seq ID No: 3) group.
In assay [21] the target is non-muscle myosin heavy chain II-A (NMHC II-A) protein. The description is as above.
Assay [22] has as its target NMHC II-A artificial polypeptide (Seq ID No: 4). Nature of the assay: indirect ELISA, antigen coated 200 ng/well, serum dilution 10^-5; control of the anti-polypeptide (Seq ID No: 4) group.
Assay [23] concerns the target non-muscle myosin heavy chain II-A (NMHC II-A) protein. The assay is described as above.
The target in assay [24] is PRRS virus (PRRSV). Description: cell-based or functional assay.

“Negative control sera (mouse serum before immunization) (antibody)”: the OD value (450 nm) in assay [1] came out at 0.12 OD; in assay [2], 0.13 OD; in assay [3], 0.11 OD; in assay [4] it was 0.12 OD; in assay [5], 0.15 OD; in assay [6], 0.14 OD. The OD value (450 nm) in assay [7] is 0.11 OD; in assay [8], 0.1 OD; in assay [9], 0.13 OD; in [10], 0.11 OD; in [11], 0.13 OD; in assay [12] it was 0.11 OD. Moreover, the OD value (450 nm) in assay [13] is 0.08 OD; in assay [14] it was 0.1 OD; in assay [15] it was 0.09 OD; in assay [16], 0.1 OD; in [17], 0.08 OD; in assay [18], 0.07 OD. In addition, the OD value (450 nm) in [19] turned out to be 0.08 OD; in assay [20], 0.08 OD; in assay [21], 0.07 OD; in assay [22] it was 0.09 OD; in assay [23] it was 0.07 OD.

For “non-muscle myosin heavy chain II-A (NMHC II-A) protein (receptor)”, the CPE caused by PRRSV on Marc-145 and PAM cells, blocker at 1 µg/well ('+' means CPE in 25% cells) (% cells with CPE) in [24] is 25.

Values taken from patent US20120107932A1, “PRRS-VIRUS RECEPTOR AND ITS INHIBITOR” (priority 2009, published 2012).
